Patent publication US20220112295A1 (Novo Nordisk, published 2022)
Where a chain is given by its changes, count along the chain named.

T1: native human CD30L expressed on Ramos cells (human, UniProt P32971 1-234)
T1 construct: It is used here for the native protein on human B cell lines; also called huCD30L; Native huCD30L
T1 sequence: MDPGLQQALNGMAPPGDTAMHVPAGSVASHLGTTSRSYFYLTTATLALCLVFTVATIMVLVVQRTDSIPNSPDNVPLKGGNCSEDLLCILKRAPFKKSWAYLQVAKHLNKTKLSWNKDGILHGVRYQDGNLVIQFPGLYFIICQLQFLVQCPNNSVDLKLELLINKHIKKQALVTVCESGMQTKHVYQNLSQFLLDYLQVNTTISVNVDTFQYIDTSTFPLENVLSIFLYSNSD

T2: native cynomolgus monkey CD30L on activated T cells (cynomolgus monkey, UniProt A0A7N9CVX7 1-234)
T2 construct: whole, on cells; also called cynomologous CD30L
T2 sequence: T1 sequence with A19T, M20T, G32E, L41F, V75I, K78R, I204V, I227V

T3: cyno CD30L LZ (cynomolgus monkey, UniProt A0A7N9CVX7 63-234)
T3 sequence: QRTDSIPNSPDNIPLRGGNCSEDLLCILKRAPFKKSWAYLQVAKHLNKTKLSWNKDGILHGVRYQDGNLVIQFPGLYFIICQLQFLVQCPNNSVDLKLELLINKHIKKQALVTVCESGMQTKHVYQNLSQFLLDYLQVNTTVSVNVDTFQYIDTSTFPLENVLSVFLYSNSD

B1: Antibody E (antibody, V domains shown)
VH: QVQLQESGPRLVKPSETLSLTCTVSGGSITNNYWSWIRQPAGKGLEWIGRVYSSGLTNYKPSLKSRVTMSVDTSKNQFSLRLNSVTAADTAVYYCARERATVTTRYHYDGMDVWGQGTSVTVSS
VL: QSALTQPASVSGSPGQSITISCTGSSSDIGTYNYVSWYQQYPGKAPELMIYEVNNRPSGVSDRFSGSTSGNTASLTISGLQANDEADYYCSSYSSSSTWVFGGGTKLTVL
notes: also called mAb E
B2: Antibody A (antibody, V domains shown)
VH: QVQLQESGPGLVKPSETLSLTCTVSGGSISSYIWSWIRQPAGKGLEWIGRIYASGNTNYNPSLKSRVTMSVDTSKNQFSLKLSSMTAADTAVYYCARDYRVAGTYYYYYGLDVWGQGTTVTVSS
VL: QSALTQPASVSGSPGQSITISCTGTSSDVGVYDYVSWYQQHPGKAPKLMIYEVSNRPSGVSNRFSGSKSGNTASLTISGLQTEDEADYYCSSYTSRSTWVFGGGTKLTVL
notes: Human antibody (XenoMouse); also called mAb A; anti-hCD30L A
B3: Antibody B (antibody, V domains shown)
VH: QVQLQESGPGLVKPSETLSLTCTVSGGSISSYYWTWIRQPAGKGLEWIGRIYTSGITNYNPSLKSRVTMSVDTSKNQFSLKLSSVTAADTAVYYCARERVVGASRYYYYGVDVWGQGTTVTVSS
VL: B2 VL with V31L, D33N, G43D, Y51F, S54N, K68N, T82A, R96S
notes: also called mAb B
B4: Antibody D (antibody, V domains shown)
VH: QVQLQESGPGLVKPSETLSLTCTVSGGSISSYSWSWIRQPAGKGLEWIGRTSTSGRNNYNPSLKSRVTMSVDTSKNQFSLKLNSVTAADTAVYYCARDFTIAARRYYYYGMDVWGQGTTVTVSS
VL: B2 VL with V29I, V31L, D33N, M49I, S54I, K68E, T82A, D87N, R96S
notes: also called mAb D
B5: Antibody F (antibody, V domains shown)
VH: QVQLQESGPGLVKPSETLSLTCTVSGGSISSYYWSWIRQPAGKGLEWIGRIFASGSTNYNPSLRSRVTMSRDTSKNQFSLKLSSVTAADTAVYYCAKERVGVQDYYHYSGMDVWGQGTTVTVSS
VL: B2 VL with V31L, D33N, H41Q, N55K, K68T, T82A, E83D, Y89S, R96S
notes: also called mAb F
B6: Antibody C (antibody, V domains shown)
VH: B3 VH
VL: QSALTQPASVSGSPGQSITISCTGTSSDIGLYDYVSWYQQHPDRAPKLIIFEVNNRPSGVSYRFSGSNSGNTASLTISGLQAEDEADYYCSSYTSSSTWVFGGGTKLTVL
notes: also called mAb C

Target: T1, native human CD30L expressed on Ramos …
Assay: FACS, native human CD30L on Ramos cells
Procedure: (§1) The supernatants were purified and recombinant antibodies were expressed as IgG1 and IgG2 constructs. The antibodies were rescreened for binding to native human and cynomologous monkey CD30L. Briefly, human Burkitt's lymphoma Ramos cells (3×10⁵/well) were incubated in round-bottomed 96-well microtiter plates (Costar® 96 well plate (Corning; Acton, Mass.) with a titration (10 μg/mL to 3.2 ng/mL final concentration) of anti-CD30L IgG antibodies in blocking buffer (PBS containing 0.02% sodium azide, 2% normal goat serum and 1% normal rabbit serum). Human […] fusion protein was included as a positive control for binding. Cells were incubated for 30 minutes at 4° C. then washed ×2 with PBS and incubated for a further 30 minutes at 4° C. with 30 μL/well of anti-hu IgG-biotin (1:50 in blocking buffer; Jackson Immunoresearch, West Grove, Pa.). After washing ×2 with PBS, cells were incubated for 30 minutes at 4° C. with 30 μL/well (1:50 dilution in PBS) of Streptavidin-Phycoerythrin (PE; Molecular Probes, Eugene, Oreg.). Cells were washed 2× with PBS and prepared for FACs analysis.

Compared with B1, B2 is 1.9-fold lower in EC50: 3.3 nM for the first, 1.7 nM for the second. The second is the more potent here.

B3 and B4 are within 1.5-fold of each other in EC50: 3.1 nM for the first, 3.3 nM for the second.

B5 and B6 are within 1.5-fold of each other in EC50: 2.3 nM for the first, 1.7 nM for the second.

Target: T2, native cynomolgus monkey CD30L on …
Assay: FACS, native cyno CD30L on activated cynomolgus T cells
Procedure: as §1, with “The” for “The supernatants were purified and recombinant antibodies were expressed as IgG1 and IgG2 constructs. The”
(§2) Cynomologous activated T cells were prepared by isolating peripheral blood mononuclear cells (PBMC) from heparinized cynomolgus monkey blood by density centrifugation over Isolymph (2000 rpm. for 20 minutes). PBMC were resuspended in 25 mLs of PBS, added to 300 μl of a 50% solution of 2-Aminoethylisothiouronium bromide (AET)-treated sheep erythrocytes and centrifuged at […] at 4° C. for 10 minutes. Pelleted cells were incubated at 4° C. for a further 20 minutes, gently resuspended and centrifuged over Isolymph. Supernatant was removed down to the T cell/erythrocyte pellet. The pellet was then resuspended in 25 mL of lyses buffer (0.85% ammonium chloride in water) and incubated at 37° C. for 10 minutes. The resultant T cells were pelleted and washed x2 in culture medium (RPMI-1640 medium +10% heat-inactivated fetal bovine serum) and then cultured ([…]) at 37° C. for 18 hr in the presence of 10 ng/mL Phorbol Myristate Acetate (PMA; Sigma Chemicals, St Louis, Mo.) and 500 ng/mL lonornycin (Calbiochem, San Francisco, Calif.). At the end of the culture period, cynomolgus T cells were counted and washed 1× with PBS and incubated with 2% Goat serum, 1% Rabbit serum and 0.1% Human serum in PBS for 30 minutes at […]. Cells were then stained with anti-huCD30L antibodies as described above for human Ramos cells.

B1 and B2 are within 1.5-fold of each other in EC50: 2.7 nM for the first, 2.2 nM for the second.

B3 and B4 are within 1.5-fold of each other in EC50: 4 nM for the first, 2.7 nM for the second.

First: B5
Second: B6
The EC50 of the first is 2.9-fold higher: 2.9 nM for the first, 1 nM for the second. The second is the more potent here.

Target: T2, native cynomolgus monkey CD30L on …
Assay: FACS, antibody at 50 ug/mL, inhibition of huCD30.Fc-His binding to activated cynomolgus T cells
Procedure: as §2
The antibodies were also screened for ability to block binding of human CD30L to a soluble human CD30. c molecule. Briefly, human Ramos cells or activated cynomolgus monkey T cells were incubated with anti-CD30L IgGs at 50 μg/mL in blocking buffer for 30 minutes at 4° C. Soluble huCD30. Fc-His was then added at a final concentration of 2.5 ug/mL (30 μL/well) and incubated for 30 minutes at 4° C. Cells were washed ×2 with PBS and incubated with 5 μg/mL of a mouse anti-His monoclonal antibody (30μL/well in blocking buffer) and incubated for 30 minutes at 4° C. After washing ×2 with PBS, cells were incubated with anti-mouse IgG-PE (1:50 in PBS; BD Pharmingen, San Diego, Calif.) for a further 30 minutes at […]. Cells were then washed ×2 with PBS and prepared for FACs analysis.

Compared with B1, B2 is lower in “% inhibition” value: 87% for the first, 77% for the second.

Compared with B3, B4 is lower in “% inhibition” value: 88% for the first, 84% for the second.

Going from B5 to B6, the “% inhibition” value falls from 97% to 83%.

Target: T3, cyno CD30L LZ
Assay: cell-based or functional assay

First: B1
Second: B2
The “IC50, inhibition of IL-8 release (K299 single cell assay with cyno CD30L LZ)” value of the first is 2.7-fold higher: 5.4 nM for the first, 2 nM for the second.

B3 and B4 are within 1.5-fold of each other in “IC50, inhibition of IL-8 release (K299 single cell assay with cyno CD30L LZ)” value: 5.6 nM for the first, 5.4 nM for the second.

B5 and B6 are within 1.5-fold of each other in “IC50, inhibition of IL-8 release (K299 single cell assay with cyno CD30L LZ)” value: 5.5 nM for the first, 3.9 nM for the second.

Target: T1, native human CD30L expressed on Ramos …
Assay: cell-based or functional assay

First: B1
Second: B2
The “IC50, inhibition of IL-8 release (K299/Ramos dual cell assay)” value of the first is 1.6-fold higher: 0.045 nM for the first, 0.028 nM for the second.

B3 and B4 are within 1.5-fold of each other in “IC50, inhibition of IL-8 release (K299/Ramos dual cell assay)” value: 0.072 nM for the first, 0.062 nM for the second.

First: B5
Second: B6
The “IC50, inhibition of IL-8 release (K299/Ramos dual cell assay)” value of the first is 1.7-fold higher: 0.06 nM for the first, 0.036 nM for the second.
